{"source": "patent US20260193326A1", "about": "(published 2026)", "binders": {"B1": {"name": "A4-051 (VHH)", "VHH": "VQLQESGGGLVQPGGSLRLSCAASGSSFVINTMGWYRRAPGKQRELVAAVTRGGSTNYADSVKGRFTISRDNAKNTVYLQMNSLRPEDTAVYYCHVDEVRQSSWTTSNLWGQGTQVTVSS"}, "B2": {"name": "A4-100 (VHH)", "VHH": "B1 VHH with S27I, R38Q, A49S, V50L, A73D, V77I, Q101E, S103T, L109I"}, "B3": {"name": "A4-068 (VHH)", "VHH": "VQLQESGGGLVQTGGSLRLSCAASGRAFSLNTMGWYRQAPGKWRELVATVTRGGSTNYAGSVKGRFTISRDNAKNTVYLQMNNLRPEDTAVYYCHVDEVRESSWTTSNLWGQGTQVTVSS"}, "B4": {"name": "A4-056 (VHH)", "VHH": "B1 VHH with S27A, V29S, R38Q, L46K"}, "B5": {"name": "A4-054 (VHH)", "VHH": "B1 VHH with S27A, V29S, R38Q"}, "B6": {"name": "A4-067 (VHH)", "VHH": "B3 VHH with A73T"}, "B7": {"name": "A4-064 (VHH)", "VHH": "B3 VHH with T13S, A27N, M33V, W43Q, R52S, S55G, N83S, S103T"}, "B8": {"name": "A4-098 (VHH)", "VHH": "VQLQESGGGLVQPGGSLRLSCIASGSIFSINTMGWYRQAPGKQRELVATITRGGNTNYGDSVKGRFTISRDNAKNTVYLQMNTLRPEDTAVYYCHVDEIRESSWTTSNLWGQGTQVTVSS"}}, "note": "Positions count from the first letter of the chain named."}
{"molecular_target": "T1, AAV9 (adeno-associated virus 9)", "T1 construct": "also called adeno-associated virus serotype 9", "assay": "SPR, AAV amine-coupled to CM5 chip;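 further: nanobodies flowed as analyte at seven concentrations spanning 1–100 nM over immobilized AAV (500–800 RU), kinetic constants derived by fitting the binding curves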", "units": {"Kd": "µM", "koff": "s⁻¹", "kon": "M⁻¹ s⁻¹"}, "experimental": "(§1) AAV was amine-coupled to a CM5 sensor chip at a density of 500-800 response units (RU). Nanobodies were injected at seven concentrations (1-100 nM) with a flow rate of 45 μL/min, and chip regeneration was performed using glycine-HCl (pH 1.5). Binding curves at different nanobody concentrations were used to calculate kinetic parameters (Kₐ, Kd, KD) (Table 2 and FIG. 2)."}
{"binder": "B1", "Kd": 0.712, "koff": 0.00477, "kon": 6700}
{"binder": "B2", "Kd": 0.00764, "koff": 0.00126, "kon": 165000}
{"binder": "B3", "Kd": 0.0319, "koff": 0.00349, "kon": 109000}
{"binder": "B4", "Kd": 0.0969, "koff": 0.00887, "kon": 91500}
{"binder": "B5", "Kd": 0.0289, "koff": 0.00025, "kon": 8660}
{"binder": "B6", "Kd": 0.106, "koff": 0.00035, "kon": 3320}
{"binder": "B7", "Kd": 0.42, "koff": 0.00128, "kon": 3050}
{"binder": "B8", "Kd": 0.0822, "koff": 0.0006, "kon": 7300}
{"molecular_target": "T2, AAV8 (adeno-associated virus 8)", "T2 construct": "also called adeno-associated virus serotype 8", "assay": "SPR, AAV amine-coupled to CM5 chip;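 further: nanobodies flowed as analyte at seven concentrations spanning 1–100 nM over immobilized AAV (500–800 RU), kinetic constants derived by fitting the binding curves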", "units": {"Kd": "µM", "koff": "s⁻¹", "kon": "M⁻¹ s⁻¹"}, "experimental": "as §1"}
{"binder": "B1", "Kd": 0.791, "koff": 0.00466, "kon": 5890}
{"binder": "B2", "Kd": 0.0362, "koff": 0.00356, "kon": 98300}
{"binder": "B3", "Kd": 0.182, "koff": 0.00436, "kon": 24000}
{"binder": "B4", "Kd": 0.265, "koff": 0.00779, "kon": 29400}
{"binder": "B5", "Kd": 0.368, "koff": 0.0018, "kon": 4890}
{"binder": "B6", "Kd": 0.128, "koff": 0.00044, "kon": 3440}
{"binder": "B7", "Kd": 0.227, "koff": 0.0017, "kon": 7500}
{"binder": "B8", "Kd": 0.0233, "koff": 0.00018, "kon": 7740}
{"molecular_target": "T3, AAV5 (adeno-associated virus 5)", "T3 construct": "also called adeno-associated virus serotype 5", "assay": "SPR, AAV amine-coupled to CM5 chip;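 further: nanobodies flowed as analyte at seven concentrations spanning 1–100 nM over immobilized AAV (500–800 RU), kinetic constants derived by fitting the binding curves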", "units": {"Kd": "µM", "koff": "s⁻¹", "kon": "M⁻¹ s⁻¹"}, "experimental": "as §1"}
{"binder": "B1", "Kd": 0.748, "koff": 0.00507, "kon": 6780}
{"binder": "B2", "Kd": 0.00675, "koff": 0.00124, "kon": 184000}
{"binder": "B3", "Kd": 0.0453, "koff": 0.00608, "kon": 134000}
{"binder": "B4", "Kd": 0.622, "koff": 0.00648, "kon": 10400}
{"binder": "B5", "Kd": 0.213, "koff": 0.00163, "kon": 7660}
{"binder": "B6", "Kd": 0.00714, "koff": "2e-05", "kon": 2800}
{"binder": "B7", "Kd": 0.0818, "koff": 0.00046, "kon": 5620}
{"binder": "B8", "Kd": 0.13, "koff": 0.00117, "kon": 9030}
{"molecular_target": "T4, AAV2 (adeno-associated virus 2, UniProt P03135 1-735)", "T4 construct": "also called adeno-associated virus serotype 2", "assay": "SPR, AAV amine-coupled to CM5 chip;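 further: nanobodies flowed as analyte at seven concentrations spanning 1–100 nM over immobilized AAV (500–800 RU), kinetic constants derived by fitting the binding curves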", "units": {"Kd": "µM", "koff": "s⁻¹", "kon": "M⁻¹ s⁻¹"}, "experimental": "as §1"}
{"binder": "B1", "Kd": 0.907, "koff": 0.00325, "kon": 3580}
{"binder": "B3", "Kd": 0.0119, "koff": 0.00167, "kon": 141000}
{"binder": "B4", "Kd": 0.224, "koff": 0.00485, "kon": 21600}
{"binder": "B5", "Kd": 1.06, "koff": 0.00114}
{"binder": "B6", "Kd": 0.016, "koff": "3e-05", "kon": 1870}
{"binder": "B7", "Kd": 0.0757, "koff": 0.0005, "kon": 6600}
